Key:
ERβ = ERβ (Homo sapiens, UniProt Q92731); assay: Phage ELISA / fingerprint on ER immobilized on biotinylated ERE (Examples 2.3-2.5); assay type: binding; parameters: purchased PanVera Corporation, Madison, WI; key: semiquantitative scale of 0 to 7+; 1+: semiquantitative scale of 0 to 7+; 2+: semiquantitative scale of 0 to 7+; 3+: semiquantitative scale of 0 to 7+; 4+: semiquantitative scale of 0 to 7+; 5+: semiquantitative scale of 0 to 7+; 6+: semiquantitative scale of 0 to 7+; semiquantitative scale of 0 to 7+; settings: for binding activity, ERβ and Estradiol: ERβ and Estradiol (1 µM); for binding activity, ERβ and tamoxifen: ERβ and tamoxifen (4-OH tamoxifen, 1 µM)
Sequence of ERβ (Q92731 whole entry): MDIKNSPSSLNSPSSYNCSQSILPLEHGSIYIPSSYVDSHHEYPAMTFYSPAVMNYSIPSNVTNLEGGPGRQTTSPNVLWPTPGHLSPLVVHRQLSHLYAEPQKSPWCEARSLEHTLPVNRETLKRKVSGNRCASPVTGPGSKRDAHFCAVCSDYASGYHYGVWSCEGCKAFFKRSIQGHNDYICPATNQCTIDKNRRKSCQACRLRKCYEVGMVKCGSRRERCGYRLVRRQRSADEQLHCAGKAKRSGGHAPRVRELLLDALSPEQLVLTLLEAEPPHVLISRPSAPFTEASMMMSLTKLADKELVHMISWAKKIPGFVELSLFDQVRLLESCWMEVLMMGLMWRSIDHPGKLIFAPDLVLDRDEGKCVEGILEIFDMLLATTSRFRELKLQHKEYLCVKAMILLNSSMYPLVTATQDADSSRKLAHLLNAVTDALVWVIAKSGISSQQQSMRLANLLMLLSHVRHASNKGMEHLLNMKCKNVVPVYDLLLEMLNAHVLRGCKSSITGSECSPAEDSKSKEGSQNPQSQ

ERα = molecular target: T1, ERα (Homo sapiens, UniProt P03372); assay: as above; assay type: binding; parameters: purchased PanVera Corporation, Madison, WI; key to binding activity, ERα and buffer / binding activity, ERα and estradiol / binding activity, ERα and tamoxifen / binding of peptide, Class Specific Fingerprint on ERα: semiquantitative scale of 0 to 7+; 1+: semiquantitative scale of 0 to 7+; 2+: semiquantitative scale of 0 to 7+; 3+: semiquantitative scale of 0 to 7+; 4+: semiquantitative scale of 0 to 7+; 5+: semiquantitative scale of 0 to 7+; 6+: semiquantitative scale of 0 to 7+; semiquantitative scale of 0 to 7+; settings: for binding activity, ERα and estradiol: ERα and estradiol (1 µM); for binding activity, ERα and tamoxifen: ERα and tamoxifen (4-OH tamoxifen, 1 µM)
T1 sequence (P03372 1-595): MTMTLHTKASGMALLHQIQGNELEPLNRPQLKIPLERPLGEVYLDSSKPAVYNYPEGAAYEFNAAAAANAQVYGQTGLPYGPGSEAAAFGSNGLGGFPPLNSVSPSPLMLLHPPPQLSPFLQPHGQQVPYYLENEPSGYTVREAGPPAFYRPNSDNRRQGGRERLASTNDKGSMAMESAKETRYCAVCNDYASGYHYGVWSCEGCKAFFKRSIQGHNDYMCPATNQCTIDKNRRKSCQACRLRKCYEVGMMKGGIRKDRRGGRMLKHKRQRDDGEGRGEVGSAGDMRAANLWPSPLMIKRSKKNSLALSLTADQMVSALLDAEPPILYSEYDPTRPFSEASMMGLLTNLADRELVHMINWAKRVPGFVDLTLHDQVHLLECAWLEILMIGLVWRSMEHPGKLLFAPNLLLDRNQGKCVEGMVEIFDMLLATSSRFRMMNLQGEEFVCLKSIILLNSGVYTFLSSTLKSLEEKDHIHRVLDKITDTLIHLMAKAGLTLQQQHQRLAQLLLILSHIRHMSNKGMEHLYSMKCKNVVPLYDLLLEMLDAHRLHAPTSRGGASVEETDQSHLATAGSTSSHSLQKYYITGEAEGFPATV

Row | Sequence | binding activity, ERβ and Estradiol (ERβ) | binding activity, ERβ and buffer (ERβ) | binding activity, ERβ and tamoxifen (ERβ) | binding activity, ERα and buffer (ERα) | binding activity, ERα and estradiol (ERα) | binding activity, ERα and tamoxifen (ERα)
1 | SRNLLCLLDQEACSR [Peptide 17E-β] | 7+ | 3+ | 1+ | 5+ | 4+ | 4+
2 | SRPEGSSWLLHYLSR [Peptide 24E-β] | 7+ | 5+ | 2+ | 5+ | 6+ | 4+
3 | SRPGCLRGVWCLADTPPSR [Peptide 20t-β] | 6+ | 7+ | 7+ | 2+ | 2+ | 3+
4 | SRPYCLGDVWCLDSR [Peptide 2t-β] | 6+ | 7+ | 7+ | 2+ | 2+ | 3+
5 | SRSPILWHLLQDGSR [Peptide 10E-β] | 7+ | 4+ | 2+ | 5+ | 6+ | 4+
6 | SRWWLDDHELLLYSSR [Peptide 26E-β] | 7+ | 5+ | 2+ | 6+ | 4+ | 5+
7 | SSAGLLEDMLRSRSR [Peptide 21E-β] | 7+ | 3+ | 1+ | 4+ | 5+ | 3+
8 | SSARPWWLQFEGSSR [Peptide 7t-β] | 7+ | 7+ | 7+ | 2+ | 2+ | 2+
9 | SSDLHRDCLGVWCLSR [Peptide 17t-β] | 7+ | 7+ | 7+ | 1+ | 2+ | 2+
10 | SSDLYSQMREFFQINLSR [Peptide 23t-β] | 6+ | 6+ | 7+ | 4+ | 4+ | 6+
11 | SSDTRSRLYELLSSSYTSR [Peptide 5E-β] | 7+ | 5+ | 2+ | 4+ | 6+ | 4+
12 | SSGLPPNFERMLKSR [Peptide 6b-β] | 2+ | 6+ | 2+ | 5+ | 3+ | 3+
13 | SSGPFYVGGMLWPADCLSR [Peptide 10t-β] | 2+ | 4+ | 7+ | 4+ | 3+ | 6+
14 | SSGPWLMHYLGGGSR [Peptide 7b-β] | 7+ | 7+ | 2+ | 2+ | 4+ | 3+
15 | SSGSSAGRLMMLLQDGVSR [Peptide 13E-β] | 6+ | 2+ | 1+ | 5+ | 4+ | 5+
16 | SSHCHTRLCSLLTSR [Peptide 15E-β] | 7+ | 4+ |  | 6+ | 6+ | 5+
17 | SSIKDFPNLISLLSR [Peptide 12E-β] | 7+ | 4+ | 1+ | 2+ | 2+ | 2+
18 | SSILERLLGGGSAETV [Peptide 9E-β] | 7+ | 4+ | 1+ | 3+ | 4+ | 
19 | SSIPPRSWWLSQLSR [Peptide 19b-β] | 6+ | 7+ | 7+ | 5+ | 4+ | 4+
20 | SSISTYHMGEWFYAMLSSR [Peptide 22t-β] | 4+ | 5+ | 7+ | 3+ | 4+ | 6+
21 | SSKLYCLLDESYCSR [Peptide 21b-β] | 7+ | 7+ | 3+ | 6+ | 7+ | 3+
22 | SSLDLSQFPMTASFLRESR [Peptide 35E-β] | 6+ | 2+ | 1+ | 2+ | 2+ | 2+
23 | SSLKCLLNSNFCSR [Peptide 18E-β] | 7+ | 4+ | 1+ | 5+ | 6+ | 5+

Reference: patent publication EP1073891B1, “METHOD OF PREDICTING RECEPTOR MODULATING ACTIVITY” (Duke University, priority 1998, dated 1999)
